Target: SARS-CoV-2 non-structural protein 3 (nsp3), TwinStrep-EGFP tagged, wild type (SARS-CoV-2 (Wuhan-Hu-1), UniProt P0DTD1)
Assay: […]

B1: SARS-CoV-2 non-structural protein 4 (nsp4), wild type (natural protein)
chain: KIVNNWLKQLIKVTLVFLFVAAIFYLITPVHVMSKHTDFSSEIIGYKAIDGGVTRDIASTDTCFANKHADFDTWFSQRGGSYTNDKACPLIAAVITREVGFVVPGLPGTILRTTNGDFLHFLPRVFSAVGNICYTPSKLIEYTDFATSACVLAAECTIFKDASGKPVPYCYDTNVLEGSVAYESLRPDTRYVLMDGSIIQFPNTYLEGSVRVVTTFDSEYCRHGTCERSEAGVCVSTSGRWVLNNDYYRSLPGVFCGVDAVNLLTNMFTPLIQPIGALDISASIVAGGIVAIVVTCLAYYFMRFRRAFGEYSHVVAFNTLLFLMSFTVLCLTPVYSFLPGVYSVIYLYLTFYLTNDVSFLAHIQWMVMFTPLVPFWITIAYIICISTKHFYWFFSNYLKRRVVFNGVSFSTFEEAALCTFLLNKEMYLKLRSDVLLPLTQYNRYLALYNKYKYFSGAMDTTSYREAACCHLAKALNDFSNSGSDVLYQPPQTSITSAVLQ
stoichiometry N: 1 ratio nsp4:nsp3 (12:12 in the complex)

Source: publication PMC11374677 (Nature, 2024)
